Test results as given in patent US20190352408A1 (US Dept. of Health and Human Services, published 2019).

T1: cell-surface FLT3 (UniProt P36888 27-993, limits assumed)
T1 construct: whole, on cells; also called FLT3 on FLT3-positive RS4; 11 cells
T1 sequence (looked up): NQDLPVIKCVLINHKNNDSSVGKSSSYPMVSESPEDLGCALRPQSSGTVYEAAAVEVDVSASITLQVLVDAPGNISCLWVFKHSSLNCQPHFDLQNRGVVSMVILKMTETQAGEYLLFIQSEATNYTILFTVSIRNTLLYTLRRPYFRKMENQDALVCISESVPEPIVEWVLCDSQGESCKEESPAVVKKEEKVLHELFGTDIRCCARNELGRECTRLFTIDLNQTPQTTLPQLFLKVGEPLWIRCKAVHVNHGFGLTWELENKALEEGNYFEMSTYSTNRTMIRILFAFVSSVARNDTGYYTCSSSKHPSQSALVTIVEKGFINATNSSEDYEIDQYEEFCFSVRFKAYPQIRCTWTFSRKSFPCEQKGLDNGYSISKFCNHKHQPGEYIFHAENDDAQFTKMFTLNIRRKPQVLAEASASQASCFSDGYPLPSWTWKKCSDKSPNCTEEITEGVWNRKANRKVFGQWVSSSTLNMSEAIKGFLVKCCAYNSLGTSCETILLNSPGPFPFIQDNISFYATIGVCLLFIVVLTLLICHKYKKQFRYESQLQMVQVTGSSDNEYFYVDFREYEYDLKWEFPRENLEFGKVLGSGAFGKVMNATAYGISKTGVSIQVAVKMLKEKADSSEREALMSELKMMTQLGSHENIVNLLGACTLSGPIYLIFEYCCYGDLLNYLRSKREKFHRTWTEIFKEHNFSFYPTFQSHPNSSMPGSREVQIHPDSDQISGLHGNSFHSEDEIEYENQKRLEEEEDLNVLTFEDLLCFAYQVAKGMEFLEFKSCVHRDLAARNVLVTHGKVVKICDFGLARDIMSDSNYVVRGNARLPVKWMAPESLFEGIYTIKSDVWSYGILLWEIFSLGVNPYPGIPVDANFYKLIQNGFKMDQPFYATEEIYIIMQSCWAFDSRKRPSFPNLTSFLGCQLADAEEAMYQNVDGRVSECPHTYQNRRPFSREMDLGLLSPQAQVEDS

T2: recombinant soluble FLT3 (human, UniProt P36888 27-541, limits assumed)
T2 construct: For the ELISA it says only 'recombinant soluble FLT3'; also called soluble recombinant FLT3; Fms-like tyrosine kinase 3
T2 sequence (looked up): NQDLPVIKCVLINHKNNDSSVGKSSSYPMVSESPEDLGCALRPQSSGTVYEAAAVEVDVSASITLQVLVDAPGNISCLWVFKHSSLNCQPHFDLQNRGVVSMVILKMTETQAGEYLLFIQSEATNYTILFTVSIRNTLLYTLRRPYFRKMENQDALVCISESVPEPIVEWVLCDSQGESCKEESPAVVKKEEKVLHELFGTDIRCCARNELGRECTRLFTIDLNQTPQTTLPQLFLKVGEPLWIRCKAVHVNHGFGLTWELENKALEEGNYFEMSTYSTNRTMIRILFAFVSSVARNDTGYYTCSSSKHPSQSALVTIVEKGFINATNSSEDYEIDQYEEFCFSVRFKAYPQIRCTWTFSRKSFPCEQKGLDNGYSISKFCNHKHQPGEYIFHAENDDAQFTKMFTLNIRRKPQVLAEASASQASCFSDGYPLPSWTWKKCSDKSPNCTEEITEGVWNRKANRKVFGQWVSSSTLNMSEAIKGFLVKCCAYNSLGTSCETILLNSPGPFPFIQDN


Experiments:
[1] = target: T1, cell-surface FLT3; assay: flow cytometry on RS4;11 cells, anti-His-PE detection
[2] = target: T2, recombinant soluble FLT3; assay: ELISA on recombinant soluble FLT3 (FIG. 1A)
[3] = target: T2, recombinant soluble FLT3; assay: ELISA on recombinant soluble FLT3 (FIG. 1C)
[4] = target: T2, recombinant soluble FLT3; assay: ELISA on recombinant soluble FLT3 (FIG. 1B)

Binder	binding result [1]	binding result [2]	binding result [3]	binding result [4]
m1006 (antibody, V domains shown, Fully human; isolated from a phage display Fab library) VH: EVQLVESGGGLVQPGGSLRLSCAASGFTFSSYGMHWVRQAPGKGLEWVAVISYDGSNKYYADSVKGRFTISRDNSKNTLYLQMNSLRAEDTAVYYCANLAPWAAYWGQGTLVTVSS VL: not shown	binds	binds		
m1007 (antibody, V domains shown, Fully human; isolated from a phage display Fab library) VH: EVQLVESGGGVVQPGGSLRLSCAASGFTFSSYGMHWVRQAPGKGLEWVAVISYDGSNKYYADSVKGRFTISRDNSKNTLYLQMNSLRAEDTAVYYCANLAPWAAYWGQGTLVTVSS VL: not shown	binds	binds		
m1012 (VHH, Human VH single-domain antibody (not camelid) from a phage display VH domain library; Detected with anti-His-PE; also called single-domain antibody m1012) VHH: EVQLVESGGGLVQPGGSLRLSCAASRFYFSGYEMSWVRQAPGKGLEWVSAISGSGGSTYYADSVKGRFTISRDNSKNTLYLQMNSLRAEDTAVYYCARRVVGAKLYFQHWGQGTLVTVSS	binds		binds	
m1009 (scFv, Fully human; isolated from a phage display scFv library; Detected with anti-His-PE) scFv: EVQLVQSGGGLVQPGGSLRLSCAASGFTFSSYAMSWVRQAPGKGLEWVSGISWNSGSIGYADSVKGRFTISRDNAKNSLYLQMNSLRAEDTALYYCAKVGGGGAFDIWGQGTMVTVSSGGGGSGGGGSGGGGSQSVLTQPPSVSAAPGQKVTISCSGSSSSIGDNYVSWYQQVPGTAPKLLIYGNNKRPSGIPDRLSGSKSGTSATLGITGLQTGDEADYYCGTWDNSLGGVFGGGTKLTVL	binds			binds
m1008 (scFv, Fully human; isolated from a phage display scFv library; Detected with anti-His-PE) scFv: QVQLQESGPGLVKPSQTLSLTCTVSGGSISSSGYYWSWVRQSPGKGLEWIGEIYQSGNTNYNPSLKSRVTISVDKPKNQLSLKLGSVTAADTAVYYCARGGSYYDYWGQGTLVTVSSGGGGSGGGGSGGGGSQSVVTQPPSVSAAPGQKVTISCSGSNSNIGNNYVSWYQQLPGTAPKVLIYDNNVRPSGIPDRFSGSKSGTSATLGITGLQTGDEADYYCETWDSSLNVGMFGGGTQLIVL	binds			binds
